Source: FireProtDB (doi:10.1016/j.jmb.2003.11.056)
Where “and” joins values, the source holds several entries; their conditions need not be identical. Identical values can stand only once.

Details: Escherichia coli (strain K12), Thermal, Fluorescence, whole UniProt chain shown

B1: Iron-sulfur cluster assembly protein CyaY wild type, P27838 (protein)
chain: MNDSEFHRLADQLWLTIEERLDDWDGDSDIDCEINGGVLTITFENGSKIIINRQEPLHQVWLATKQGGYHFDLKGDEWICDRSGETFWDLLEQAATQQAGETVSFR
In the case of B1, the Tm (pH 7, phosphate 20 mM) is reported as 53.2 °C and 53.9 °C and 53.8 °C and the Tm (pH 7.2, Hepes 10 mM) is reported as 49.2 °C and 50.9 °C.
